# Bridges are numbered along the chain shown (N, C = ends). [ ]: non-standard residue; d: D form. Pen = CC(C)(S)[C@H](N)C(=O)O; hCys = N[C@@H](CCS)C(=O)O; Dap = NC[C@H](N)C(=O)O
# Key:
# Test in all cases: cell-based or functional assay
# melanocortin 5 receptor = melanocortin 5 receptor (human, UniProt P33032 1-325)
# melanocortin 1 receptor = melanocortin 1 receptor (human, UniProt Q01726 1-317)
# melanocortin-4 receptor = melanocortin-4 receptor (human, UniProt P32245 1-332)
# melanocortin 3 receptor = melanocortin 3 receptor (human, UniProt P41968 1-323)
# melanocortin 3 receptor, sequence (P41968 whole entry): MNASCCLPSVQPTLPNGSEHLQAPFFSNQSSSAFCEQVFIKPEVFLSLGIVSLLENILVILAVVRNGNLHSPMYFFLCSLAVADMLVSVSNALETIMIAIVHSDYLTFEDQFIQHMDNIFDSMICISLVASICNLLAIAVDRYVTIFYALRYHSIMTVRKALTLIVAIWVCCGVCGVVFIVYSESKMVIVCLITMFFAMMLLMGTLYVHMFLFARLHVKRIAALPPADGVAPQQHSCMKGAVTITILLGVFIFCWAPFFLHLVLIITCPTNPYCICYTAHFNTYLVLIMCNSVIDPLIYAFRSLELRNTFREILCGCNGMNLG
# melanocortin-4 receptor, sequence (P32245 whole entry): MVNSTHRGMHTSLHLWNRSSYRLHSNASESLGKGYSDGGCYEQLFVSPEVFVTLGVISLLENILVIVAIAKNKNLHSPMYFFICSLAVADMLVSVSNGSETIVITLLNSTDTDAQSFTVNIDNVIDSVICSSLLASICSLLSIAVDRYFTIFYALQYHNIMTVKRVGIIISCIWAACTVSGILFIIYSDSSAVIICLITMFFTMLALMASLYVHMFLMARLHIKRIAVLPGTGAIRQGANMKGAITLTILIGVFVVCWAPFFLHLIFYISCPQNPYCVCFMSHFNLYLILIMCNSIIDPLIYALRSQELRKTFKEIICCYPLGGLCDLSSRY
# melanocortin 5 receptor, sequence (P33032 whole entry): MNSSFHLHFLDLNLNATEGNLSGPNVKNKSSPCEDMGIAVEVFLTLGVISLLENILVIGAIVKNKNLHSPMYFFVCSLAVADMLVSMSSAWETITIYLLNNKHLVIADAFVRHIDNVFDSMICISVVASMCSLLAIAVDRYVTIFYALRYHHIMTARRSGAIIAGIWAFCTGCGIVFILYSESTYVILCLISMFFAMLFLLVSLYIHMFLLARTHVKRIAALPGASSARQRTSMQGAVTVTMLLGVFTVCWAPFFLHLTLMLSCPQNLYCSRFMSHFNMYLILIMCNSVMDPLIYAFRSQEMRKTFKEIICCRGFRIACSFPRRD
# melanocortin 1 receptor, sequence (Q01726 whole entry): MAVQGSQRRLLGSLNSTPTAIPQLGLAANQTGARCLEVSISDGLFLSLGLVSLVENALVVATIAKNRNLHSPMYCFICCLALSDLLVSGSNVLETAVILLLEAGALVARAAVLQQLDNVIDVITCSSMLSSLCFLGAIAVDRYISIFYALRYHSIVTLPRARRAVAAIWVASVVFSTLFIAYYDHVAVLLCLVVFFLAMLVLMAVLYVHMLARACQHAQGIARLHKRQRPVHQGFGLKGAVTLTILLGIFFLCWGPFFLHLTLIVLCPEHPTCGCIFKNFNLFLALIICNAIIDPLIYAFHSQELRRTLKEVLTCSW
Binder,"EC-50 (nM), cAMP accumulation (melanocortin 5 receptor) [nM]","EC-50 (nM), cAMP accumulation (melanocortin 1 receptor) [nM]","EC-50 (nM), cAMP accumulation (melanocortin-4 receptor) [nM]","EC-50 (nM), cAMP accumulation (melanocortin 3 receptor) [nM]",Selectivity Ratio MC4R/MC3R (of EC-50 values) (melanocortin 3 receptor)
"Ac-R[hCys]T[dF]RW[Pen]-NH2 (disulfide 2-7; SMILES CC(=O)N[C@@H](CCCNC(=N)N)C(=O)N[C@H]1CCSSC(C)(C)[C@@H](C(N)=O)NC(=O)[C@H](Cc2c[nH]c3ccccc23)NC(=O)[C@H](CCCNC(=N)N)NC(=O)[C@@H](Cc2ccccc2)NC(=O)[C@H]([C@@H](C)O)NC1=O) [001574C, Ac-Arg-(hCys-Thr-D-Phe-Arg-Trp-Pen)-NH2]",2050,516,1.11,> 3000,> 2710
"Ac-R[hCys]Q[dF]RW[Pen]-NH2 (disulfide 2-7) [001555C, Ac-Arg-(hCys-Gln-D-Phe-Arg-Trp-Pen)-NH2]",124,47.5,0.19,0.52,2.68
"Ac-R[hCys]S[dF]RW[Pen]-NH2 (disulfide 2-7; SMILES CC(=O)N[C@@H](CCCNC(=N)N)C(=O)N[C@H]1CCSSC(C)(C)[C@@H](C(N)=O)NC(=O)[C@H](Cc2c[nH]c3ccccc23)NC(=O)[C@H](CCCNC(=N)N)NC(=O)[C@@H](Cc2ccccc2)NC(=O)[C@H](CO)NC1=O) [001556C, Ac-Arg-(hCys-Ser-D-Phe-Arg-Trp-Pen)-NH2]",1700,229,1.86,> 3000,> 1620
"Ac-REQ[dF]RW[Dap]-NH2 (lactam 2-7; SMILES CC(=O)N[C@@H](CCCNC(=N)N)C(=O)N[C@H]1CCC(=O)NC[C@@H](C(N)=O)NC(=O)[C@H](Cc2c[nH]c3ccccc23)NC(=O)[C@H](CCCNC(=N)N)NC(=O)[C@@H](Cc2ccccc2)NC(=O)[C@H](CCC(N)=O)NC1=O) [001576C, Ac-Arg-(Glu-Gln-D-Phe-Arg-Trp-Dpr)-NH2]",67.3,23.6,0.66,1.16,1.75
"Ac-R[hCys]N[dF]RW[Pen]-NH2 (disulfide 2-7) [001554C, Ac-Arg-(hCys-Asn-D-Phe-Arg-Trp-Pen)-NH2]",735,235,1.6,> 3000,> 1870
